Patent US20260132200A1 (Regeneron, published 2026)
Read-outs that look alike come from different tables or passages of the source.

Tests used:
[1] = target: T1, human CD3 expressed on cells (Jurkat, a CD3+ human T-cell line; human T cells) (human, UniProt P07766 23-126; P04234 22-100); experiment: FACS on Jurkat cells
T1 construct: also called FACS JURKAT
T1 chain 1: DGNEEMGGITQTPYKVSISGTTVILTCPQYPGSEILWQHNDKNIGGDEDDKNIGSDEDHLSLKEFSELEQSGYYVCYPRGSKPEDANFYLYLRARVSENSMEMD
T1 chain 2: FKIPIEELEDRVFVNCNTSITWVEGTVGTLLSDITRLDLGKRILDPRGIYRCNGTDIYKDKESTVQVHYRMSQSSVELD
Description: Binding was assessed using Jurkat cells (a CD3+ human T-cell line), while proliferation of Peripheral Blood Mononuclear Cells (PBMC) was assessed using ATP catalyzed quantification (CellTiter Glo®).
FACS data was acquired using the following protocol: Cells at 2×10⁵ per well were incubated with serially diluted antibodies for 30 min on ice. Post incubation, cells were washed and secondary antibody was added and incubated for an additional 30 minutes. After incubation, cells were washed, re-suspended in cold PBS containing 1% BSA and analyzed by flow cytometry with viable Jurkat cells gated by side and forward scatters. The EC₅₀s for cell binding titration were determined using Prism software with values calculated using a 4-parameter non-linear regression analysis.

[2] = target: T1, human CD3 expressed on cells (Jurkat, a …); experiment: cell-based or functional assay
[3] = target: T1, human CD3 expressed on cells (Jurkat, a …); experiment: cell-based or functional assay
[4] = target: T2, Soluble heterodimeric CD3 protein (hCD3-epsilon/hCD3-delta) with either a human Fc tag (hFcΔAdp/hFc) or a … (human, UniProt P07766 23-126; P04234 22-100); experiment: SPR Biacore 25C antigen-capture
T2 construct: Soluble construct; not shown: Fc tag: human (hFcΔAdp/hFc)
T2 chain 1: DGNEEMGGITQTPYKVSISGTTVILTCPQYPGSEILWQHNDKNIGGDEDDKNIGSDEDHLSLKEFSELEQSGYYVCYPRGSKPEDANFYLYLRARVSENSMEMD
T2 chain 2: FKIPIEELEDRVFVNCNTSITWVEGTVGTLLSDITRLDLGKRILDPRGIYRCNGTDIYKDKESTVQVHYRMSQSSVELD
Description: Measurements were conducted on a T200 Biacore instrument.
In the antigen-capture format, heterodimeric CD3 protein was captured using a rabbit anti-mouse Fc or mouse anti-human Fc and the respective antibodies were injected over the captured antigen.
Kinetic association (kₐ) and dissociation (kd) rate constants were determined by processing and fitting the data to a 1:1 binding model using Scrubber 2.0 curve fitting software. Binding dissociation equilibrium constants (KD) and dissociative half-lives (t_{1/2}) were calculated from the kinetic rate constants as: KD (M)=kd/kₐ; and t_{1/2} (min) (ln 2/(60*kd). NT=not tested; NB=no binding observed.

[5] = target: T3, human CD20 expressed on Raji cells (CD3-, CD20+ human B-cell line) (human, UniProt P11836 1-297); experiment: cell-based or functional assay
T3 sequence: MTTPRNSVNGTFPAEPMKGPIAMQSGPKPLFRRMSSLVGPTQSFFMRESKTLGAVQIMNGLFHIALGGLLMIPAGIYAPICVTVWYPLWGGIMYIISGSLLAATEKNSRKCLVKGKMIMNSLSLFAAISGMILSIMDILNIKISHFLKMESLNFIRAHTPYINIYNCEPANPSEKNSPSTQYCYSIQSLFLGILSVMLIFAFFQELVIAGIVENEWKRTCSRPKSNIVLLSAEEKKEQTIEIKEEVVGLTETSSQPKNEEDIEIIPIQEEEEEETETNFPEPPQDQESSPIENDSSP

[6] = target: T3, human CD20 expressed on Raji cells …; experiment: FACS on Raji cells
Description: (§1) CD20×CD3 bispecific antibodies and Control constructs, as set forth in Example 1, were tested via FACS for their ability to bind to Jurkat (CD3+, CD20− human T-cell line), Raji (CD3−, CD20+ Human B-cell line), or cynomolgus PBMCs (“mkT cells”).
(§2) FACS data was acquired using the following protocol: Cells at 2×10⁵ per well were incubated with serially diluted antibodies for 30 min on ice. Post incubation, cells were washed and appropriate secondary (Jurkat, RAJI cells) or cocktail of secondary antibodies (for cyno PBMC) was added and incubated for an additional 30 minutes. After incubation, cells were washed, re-suspended in cold PBS containing 1% BSA and analyzed by flow cytometry on a BD FACS Canto II. Jurkat and Raji cells were gated by side and forward scatters, while cynomolgus T cells were also gated in a CD2+CD4+ population. The EC₅₀s for cell binding titration were determined using Prism software with values calculated using a 4-parameter non-linear regression analysis.

[7] = target: T3, human CD20 expressed on Raji cells …; experiment: cell-based or functional assay; remark: listed apart in the source
[8] = target: T1, human CD3 expressed on cells (Jurkat, a …); experiment: FACS on Jurkat cells
Description: as §1, §2

[9] = target: T3, human CD20 expressed on Raji cells …; experiment: cell-based or functional assay; remark: listed apart in the source
[10] = target: T1, human CD3 expressed on cells (Jurkat, a …); experiment: cell-based or functional assay

B1: H2M2704N (antibody, mouse IgG2, V domains shown)
VH: QVQLVESGGGVVQPGRSLRLSCGASGFTFRSYGMHWVRQTPGRGLEWVAMIYYDGNNKYYADSVRGRFTVSRDNSKNTLYLQMSSLRAEDTALYFCARGPGYNWLDPWGQGTLVTVSS
VL: EIVMTQSPATLSVSPGERATLSCRASQSISRNLAWYQQKPGQAPRLLIYGASTRATGIPARFSGSGSGTEFTLTISSLQSEDFAVYYCQQYNNRPLTFGGGTEVEIK
notes: mouse IgG2 Fc (H2M), human variable regions
- EC50 [1]: 845 pM
- U937 Cytotoxicity Human T-cells [M] (EC50) [2]: 2.49e-12 M

B2: H1H5801B (antibody, human IgG1, V domains shown)
VH: QVQLVQSGGGVVQPGGSLRLSCAASGFTFDDYAMHWVRQAPGKGLEWVSLISGDGGSTYYADSVKGRFTISRDNSKNSLYLQMNSLRTEDTALYYCAKDDSSSSWYYYYYGMDVWGRGTTVTVSS
VL: DIQMTQSPSSLSASVGDRVTITCRASQRISSYLNWYQQKPGKAPKVLISVASSLQSGVPSRFSGSGSGTDFTLTISSLQPEDFASYYCQQSYNTPLTFGGGTKVEIKR
- U937 Cytotoxicity Human T-cells [M] (EC50) [3]: 9.23e-11 M

B3: H2M3547N (antibody, V domains shown)
VH: EAQLVESGGGLVQPGRSLRLSCTTSGFTFDDYTMHWVRQAPGKGLEWISDISWNGGTKGYADSVKGRFTISRDNAKNSLYLQMDSLRGEDTALYYCVKDKSGYGHFYFGLDVWGQGTTVTVSS
VL: DIQMTQSPSSLTASVGDRVTFTCRASQSISRHLSWYQQKPGKAPKLLIYAASSLESGVPSRFSGSGSGTDFTLTISSLHPEDFATYYCQQSYSNPPITFGQGTRLEIK
notes: mouse IgG2 Fc, human variable regions
- koff [4]: 1e-05 s⁻¹
- kon [4]: 470000 M⁻¹ s⁻¹

B4: BS3/20-007 (bispecific antibody, V domains shown)
VH 1: EVQLVESGGGLVQPGRSLRLSCVASGFTFNDYAMHWVRQAPGKGLEWVSVISWNSDSIGYADSVKGRFTISRDNAKNSLYLQMHSLRAEDTALYYCAKDNHYGSGSYYYYQYGMDVWGQGTTVTVSS
VH 2: DVQLVQSGAEVKKPGASVKVSCKASGYTFTRYTMHWVRQAPGQGLEWIGYINPSRGYTNYADSVKGRFTITTDKSTSTAYMELSSLRSEDTATYYCARYYDDHYCLDYWGQGTTVTVSS
VL: DIVLTQSPATLSLSPGERATLSCRASQSVSYMNWYQQKPGKAPKRWIYDTSKVASGVPARFSGSGSGTDYSLTINSLEAEDAATYYCQQWSSNPLTFGGGTKVEIK
- CDC EC50, Raji [5]: 2620 pM
- CDC EC50, Raji SCID1 [5]: 101000 pM
- CDC EC50, Raji SCID2 [5]: 8830 pM
- CDC EC50, Raji SCID3 [5]: 37700 pM
- CDC EC50, Raji SCID4 [5]: 140000 pM
- T-Cell Mediated Cytotoxicity EC50, Raji [5]: 1.66 pM
- T-Cell Mediated Cytotoxicity EC50, Raji SCID1 [5]: 1.11 pM
- T-Cell Mediated Cytotoxicity EC50, Raji SCID2 [5]: 0.652 pM
- T-Cell Mediated Cytotoxicity EC50, Raji SCID3 [5]: 0.293 pM
- T-Cell Mediated Cytotoxicity EC50, Raji SCID4 [5]: 1.53 pM

B5: BS3/20-005 (bispecific antibody, V domains shown)
VH 1: EVQLVESGGGLVQPGRSLRLSCVASGFTFNDYAMHWVRQAPGKGLEWVSVISWNSDSIGYADSVKGRFTISRDNAKNSLYLQMHSLRAEDTALYYCAKDNHYGSGSYYYYQYGMDVWGQGTTVTVSS
VH 2: QVQLVESGGGVVQPGRSLRLACVASGFTFRSYGMHWVRQAPGKGLQWVAMIYYDGKNKYYADSVRGRFTISRDNSKNTLYLQMNNLRVEDTAMYFCARGPGYNWLDPWGQGTLVTVSS
VL: EIVMTQSPATLSVSPGERATLSCRASQRISSNLAWYQQKPGQAPRLLIYGASTRATGSPARFSGSGSGTDFTLTISSLQSEDVAVYYCQQHHNWPLTFGGGTKVEIK
- EC50 [6]: 81700 pM
- Raji Cytotoxicity Human T-cells [M] (EC50) [7]: 1.95e-11 M

B6: BS3/20-003 (bispecific antibody, V domains shown)
VH 1: EVQLVESGGGLVQPGRSLRLSCVASGFTFNDYAMHWVRQAPGKGLEWVSVISWNSDSIGYADSVKGRFTISRDNAKNSLYLQMHSLRAEDTALYYCAKDNHYGSGSYYYYQYGMDVWGQGTTVTVSS
VH 2: EVQLVESGGGLVQPGRSLRLSCAASGFTFDDYTMHWVRQAPGKGLEWVSGISWNSGSIGYADSVKGRFTISRDNAKKSLYLQMNSLRAEDTALYYCAKDNSGYGHYYYGMDVWGQGTTVTVAS
VL: EIVMTQSPATLSVSPGERATLSCRASQSVSSNLAWYQQKPGQAPRLLIYGASTRATGIPARFSGSGSGTEFTLTISSLQSEDFAVYYCQHYINWPLTFGGGTKVEIK
- EC50 [6]: 92400 pM
- EC50 [8]: 56700 pM
- CD25 upregulation on CD8+ T-cells, PBMC + Raji, EC50 [9]: 0.338 pM
- CD25 upregulation on CD8+ T-cells, PBMC, EC50 [9]: 365 pM
- U937 Cytotoxicity Human T-cells [M] (EC50) [10]: 8.1e-11 M
- Raji Cytotoxicity Human T-cells [M] (EC50) [7]: 7.38e-11 M
- Raji Cytotoxicity Monkey T-cells [M] (EC50) [7]: 4.36e-14 M

B7: BS3/20-001 (bispecific antibody, V domains shown)
VH 1: EVQLVESGGGLVQPGRSLRLSCVASGFTFNDYAMHWVRQAPGKGLEWVSVISWNSDSIGYADSVKGRFTISRDNAKNSLYLQMHSLRAEDTALYYCAKDNHYGSGSYYYYQYGMDVWGQGTTVTVSS
VH 2: EVQLVESGGGLVQPGRSLRLSCAASGFTFDDYTMHWVRQAPGKGLEWVSGISWNSGSIGYADSVKGRFTISRDNAKKSLYLQMNSLRAEDTALYYCAKDNSGYGHYYYGMDVWGQGTTVTVAS
VL: AEIVMTQSPATLSVSPGERATLSCRASQSVSSNLAWYQQKPGQAPRLLIYGASTRATGIPARFSGSGSGTEFTLTISSLQSEDFAVYYCQHYINWPLTFGGGTKVEIK
notes: also called CD3×CD20 bispecific antibody
- EC50 [6]: 59900 pM
- EC50 [8]: 38500 pM
- CD25 upregulation on CD8+ T-cells, PBMC + Raji, EC50 [9]: 1.35 pM
- CD25 upregulation on CD8+ T-cells, PBMC, EC50 [9]: 112 pM
- U937 Cytotoxicity Human T-cells [M] (EC50) [10]: 8.86e-11 M
- Raji Cytotoxicity Human T-cells [M] (EC50) [7]: 5.63e-11 M
- Raji Cytotoxicity Monkey T-cells [M] (EC50) [7]: 1.27e-12 M

B8: BS3/20-004 (bispecific antibody, V domains shown)
VH 1: EVQLVESGGGLVQPGRSLRLSCVASGFTFNDYAMHWVRQAPGKGLEWVSVISWNSDSIGYADSVKGRFTISRDNAKNSLYLQMHSLRAEDTALYYCAKDNHYGSGSYYYYQYGMDVWGQGTTVTVSS
VH 2: QVQLVESGGGVVQPGRSLRLSCAASGFTFRSYAMHWVRQAPGKGLEWVAMVYYDGNNQYYADSVRGRFTISRDNSKNTLYLQMNSLRADDTAVYFCARGPGYNWLDPWGQGTLVTVSS
VL: EIVMTQSPATLSVSPGERATLSCRASQSVSRNLAWYQQKPGQAPRLLIYGASTRATGIPARFSGSGSGTDFTLTISSLQSEDFAVYYCQQYNNWPLTFGGGTKVVIK
- EC50 [6]: 10200 pM
- EC50 [8]: 48900 pM
- U937 Cytotoxicity Human T-cells [M] (EC50) [10]: 6.07e-11 M
- Raji Cytotoxicity Human T-cells [M] (EC50) [7]: 1.29e-11 M

B9: BS3/20-002 (bispecific antibody, V domains shown)
VH 1: EVQLVESGGGLVQPGRSLRLSCVASGFTFNDYAMHWVRQAPGKGLEWVSVISWNSDSIGYADSVKGRFTISRDNAKNSLYLQMHSLRAEDTALYYCAKDNHYGSGSYYYYQYGMDVWGQGTTVTVSS
VH 2: EVQLVESGGGLVQPGGSLRLSCAATGFTFDDFTMHWVRQAPGKGLEWVSGISWNSGSIGYVDSVKGRFTISRDNAKNSLYLQMNSLRAEDTALYYCAKDNSGYGYYYYGMDVWGQGTTVTVSS
VL: EIVMTQSPATLSVSPGERATLSCRASHSVSRNSAWYQQKPGQAPRLLIYGASTRATGIPARFSGSGSGTEFTLTISSLQSEDFAIYYCQQYNNWPLTFGGGTKVEIK
- EC50 [6]: 11500 pM
- EC50 [8]: 56200 pM
- U937 Cytotoxicity Human T-cells [M] (EC50) [10]: 8.24e-10 M
- Raji Cytotoxicity Human T-cells [M] (EC50) [7]: 7.71e-11 M
